Two molecules from patent US20240287172A1 (SCIRHOM, published 2024) can be followed below.

Experiment [1] has as its target T1, human iRhom1, endogenously expressed (human, UniProt Q96CC6 1-855).
T1 construct: also called iRhom1 on RH-30 cells
T1 sequence: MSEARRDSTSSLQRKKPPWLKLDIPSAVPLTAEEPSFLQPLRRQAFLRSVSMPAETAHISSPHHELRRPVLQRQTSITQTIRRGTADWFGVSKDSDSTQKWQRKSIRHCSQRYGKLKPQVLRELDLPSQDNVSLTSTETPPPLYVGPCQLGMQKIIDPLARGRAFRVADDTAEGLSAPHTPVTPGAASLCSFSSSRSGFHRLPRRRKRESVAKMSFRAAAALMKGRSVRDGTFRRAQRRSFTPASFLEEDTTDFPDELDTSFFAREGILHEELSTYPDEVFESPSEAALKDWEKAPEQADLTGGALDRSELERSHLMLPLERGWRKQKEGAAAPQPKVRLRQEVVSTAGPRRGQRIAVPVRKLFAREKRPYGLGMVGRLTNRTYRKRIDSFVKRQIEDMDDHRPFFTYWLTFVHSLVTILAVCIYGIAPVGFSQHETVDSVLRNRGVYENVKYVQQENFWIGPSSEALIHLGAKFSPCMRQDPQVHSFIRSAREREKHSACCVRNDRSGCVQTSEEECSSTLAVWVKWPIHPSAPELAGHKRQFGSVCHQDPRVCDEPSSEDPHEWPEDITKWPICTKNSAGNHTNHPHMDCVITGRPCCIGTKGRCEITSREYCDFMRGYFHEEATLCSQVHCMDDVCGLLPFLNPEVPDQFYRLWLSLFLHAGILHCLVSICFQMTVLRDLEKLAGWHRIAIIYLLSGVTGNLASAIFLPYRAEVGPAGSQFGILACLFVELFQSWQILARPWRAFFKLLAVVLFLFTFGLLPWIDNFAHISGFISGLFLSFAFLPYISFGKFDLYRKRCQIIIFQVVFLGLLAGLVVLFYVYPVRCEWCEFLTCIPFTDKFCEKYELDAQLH
Description: FACS on RH-30 cells (iRhom1-positive, not iRhom2-positive).

The target of another experiment is T2, hiR2-FL-H505R-T7 (human, UniProt Q6PJF5 1-856).
T2 sequence: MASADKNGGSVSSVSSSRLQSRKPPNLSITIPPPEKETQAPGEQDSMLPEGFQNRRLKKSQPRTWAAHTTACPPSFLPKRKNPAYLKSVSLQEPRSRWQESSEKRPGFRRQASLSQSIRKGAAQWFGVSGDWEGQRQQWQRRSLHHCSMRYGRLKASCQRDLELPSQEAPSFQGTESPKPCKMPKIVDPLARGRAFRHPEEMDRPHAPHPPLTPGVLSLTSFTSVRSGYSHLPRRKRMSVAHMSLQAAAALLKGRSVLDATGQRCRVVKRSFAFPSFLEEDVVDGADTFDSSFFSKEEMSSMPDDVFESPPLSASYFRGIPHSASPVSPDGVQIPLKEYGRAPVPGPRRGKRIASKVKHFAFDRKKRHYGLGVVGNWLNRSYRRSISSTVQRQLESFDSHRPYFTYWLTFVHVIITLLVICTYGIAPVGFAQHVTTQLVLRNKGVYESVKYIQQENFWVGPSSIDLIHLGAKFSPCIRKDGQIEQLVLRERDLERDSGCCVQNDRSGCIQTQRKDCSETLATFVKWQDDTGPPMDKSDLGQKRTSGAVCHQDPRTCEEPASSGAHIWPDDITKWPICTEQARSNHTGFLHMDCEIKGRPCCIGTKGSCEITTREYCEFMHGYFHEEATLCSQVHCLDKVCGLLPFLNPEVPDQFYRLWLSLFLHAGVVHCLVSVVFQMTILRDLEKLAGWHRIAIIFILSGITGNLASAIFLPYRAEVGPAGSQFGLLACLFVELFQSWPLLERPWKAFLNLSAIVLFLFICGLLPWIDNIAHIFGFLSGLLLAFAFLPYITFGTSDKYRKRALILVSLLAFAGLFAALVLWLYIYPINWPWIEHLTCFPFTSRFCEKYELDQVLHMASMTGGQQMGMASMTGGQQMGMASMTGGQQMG
Kind of experiment: FACS, MEF-DKO cells, 3 µg/ml. For orientation: Flow cytometry measures light scatter and fluorescence of single cells or particles in a stream.

B1: antibody 16 (antibody, V domains shown)
VH: QVTLKESGPGILQPSQTLSLTCSFSGFSLSTFALGVGWIRQPSGRGLEWLAHIWWDDDKYYNPALKSRLTISKDTSKNHVFLKIANVDTADTATYYCARITTYYYGMDYWGQGTSVTVSS
VL: DIVLSQSPATLSVTPGDSVSLFCRASQSIGNHLHWYQQESHASPRLLIKYASQSISGIPSRFSGSGSGTDFTLSINSVETEDFGMYFCQQSYNWPLTFGAGTKLELK
notes: mouse IgG, kappa light chain; also called clone #16; purified antibody 16
With B1, the binding result in experiment [1] is listed as “no binding (tested: 3 µg/ml)”.

B2: antibody 50 (antibody, V domains shown)
VH: QVQLQQSGAELVRPGASVKVSCKASGYAFSNYLIEWVKQRPGQGLEWIGVINPGSGFTKYNEKFKGKATLTADKSSSTAYMQLSSLTSEDSAVYFCARGLYRAMDYWGQGTSVTVSS
VL: DIQMTQSPASQSASLGESVTITCLASQTIGTWLAWYQQKPGKSPQLLIYAAASLADGVPSRFSGGGSGTKFSFKISSLQAEDFVNYYCQQIYSTPYTFGGGTKLEIK
notes: mouse IgG, kappa light chain; also called clone #50; purified antibody 50
For B2, in the experiment with hiR2-FL-H505R-T7, the “loss of binding vs wild type” value was ≥ 95%.
